Numbering of substitutions follows the chain as printed. Names may count otherwise. “And” between values parts separate entries of the source, which are not always exact repeats. Equal values may be shown once. Read-outs that look alike come from different tables or passages of the source. One block for each binder: values may come before it.
Tests used:
[1] = biological target: AP C3-convertase (C3bBb) (Homo sapiens (Human)) (UniProt P01024)
[2] = biological target: AP C3-convertase (C3bBb) (Homo sapiens (Human)) (UniProt P01024); remark: listed apart in the source
[3] = substrate: CP C3-convertase (C4b2a) (Homo sapiens (Human)) (UniProt P0C0L4)
[4] = biological target: AP C3-convertase (C3bBb) (Homo sapiens (Human)) (UniProt P01024); remark: listed apart in the source
[5] = substrate: CP C3-convertase (C4b2a) (Homo sapiens (Human)) (UniProt P0C0L4); remark: listed apart in the source
[6] = biological target: C3b (Homo sapiens (Human)) (UniProt P01024)
[7] = biological target: C4b (Homo sapiens (Human)) (UniProt P0C0L4)
Sequence of C4b (Homo sapiens (Human)) (P0C0L4 757-1446 limits assumed, chain 1 of 2): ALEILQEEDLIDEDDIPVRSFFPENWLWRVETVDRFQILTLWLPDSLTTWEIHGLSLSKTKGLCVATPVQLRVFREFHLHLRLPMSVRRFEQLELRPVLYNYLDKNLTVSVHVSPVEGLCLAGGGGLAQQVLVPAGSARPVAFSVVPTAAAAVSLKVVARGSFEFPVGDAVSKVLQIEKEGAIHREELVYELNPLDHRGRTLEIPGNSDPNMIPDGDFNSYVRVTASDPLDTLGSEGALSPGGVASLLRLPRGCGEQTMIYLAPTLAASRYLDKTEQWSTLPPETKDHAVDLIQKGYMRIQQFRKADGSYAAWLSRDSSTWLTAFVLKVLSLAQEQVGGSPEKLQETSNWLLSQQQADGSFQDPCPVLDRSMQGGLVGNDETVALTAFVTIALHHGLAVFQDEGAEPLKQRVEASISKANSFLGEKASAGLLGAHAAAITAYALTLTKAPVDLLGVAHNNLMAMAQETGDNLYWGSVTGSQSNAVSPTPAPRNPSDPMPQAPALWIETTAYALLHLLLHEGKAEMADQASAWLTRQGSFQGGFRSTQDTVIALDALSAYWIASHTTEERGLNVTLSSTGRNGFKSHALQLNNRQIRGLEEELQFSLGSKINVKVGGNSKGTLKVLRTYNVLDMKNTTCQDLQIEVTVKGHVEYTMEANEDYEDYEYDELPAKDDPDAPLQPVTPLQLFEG
Sequence of C4b (Homo sapiens (Human)) (P0C0L4 20-675 limits assumed, chain 2 of 2): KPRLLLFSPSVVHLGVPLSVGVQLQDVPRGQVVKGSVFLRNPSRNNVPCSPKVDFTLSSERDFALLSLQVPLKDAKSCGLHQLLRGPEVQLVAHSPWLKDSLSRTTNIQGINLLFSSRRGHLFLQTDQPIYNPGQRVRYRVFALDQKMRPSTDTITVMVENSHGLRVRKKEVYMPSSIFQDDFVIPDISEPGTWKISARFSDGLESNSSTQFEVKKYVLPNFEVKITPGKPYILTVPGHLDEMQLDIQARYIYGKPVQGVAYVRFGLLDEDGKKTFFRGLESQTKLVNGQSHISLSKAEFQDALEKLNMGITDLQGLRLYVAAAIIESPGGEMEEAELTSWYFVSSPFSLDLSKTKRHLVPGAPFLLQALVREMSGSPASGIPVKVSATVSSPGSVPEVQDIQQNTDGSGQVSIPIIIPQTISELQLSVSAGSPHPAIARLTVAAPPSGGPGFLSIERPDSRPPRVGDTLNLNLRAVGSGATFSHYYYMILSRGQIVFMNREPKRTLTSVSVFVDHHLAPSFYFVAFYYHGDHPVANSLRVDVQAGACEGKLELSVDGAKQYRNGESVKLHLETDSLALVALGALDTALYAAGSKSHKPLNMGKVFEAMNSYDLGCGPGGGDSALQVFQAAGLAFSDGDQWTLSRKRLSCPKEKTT

- AP-DAA [1]: 12.5 fold
B1: D2M2-4 (Tetra) (protein)
chain: CEVPTRLNSASLKQPYITQNYFPVGTVVEYECRPGYRRQPSLSPKLTCLQNLKWSTAVEFCKKKSCPNIRDPLNGQAVPANGTYEFGYQMHFICNEGYYLAGEEILYCELKGSVAIWSGKPPICEKVKCTPPPKIKNGKHTFSEVEVFEYLDAVTYSCDPAPGPDPFSLIGESTIYCGDNSVWSRAAPECKVVKCRFPVVENGKQISGFGKKFYYKATVMFECDKGFYLDGSDTIVCDSNSTWDPPVPKCLKVL

- AP-DAA IC50 [2]: > 10 nM
- CP-DAA IC50 [3]: 457 nM
B2: D2M2-4 (protein)
chain: B1 chain with Q39E, N68Y, A101I, K128L

- AP-DAA [4]: 3.4 fold
- CP-DAA [5]: 2 fold
B3: D2M2-4 (L161K) (protein)
chain: B1 chain with Q39E, N68Y, A101I

- AP-DAA IC50 [2]: > 10 nM
- CP-DAA IC50 [3]: > 1000 nM
B4: D2M2-4 (ML) (protein)
chain: B1 chain with Q39E, K62Y, K63R, K64E, S65T, N68Y, A101I, K128L

- AP-DAA [4]: 7.2 fold
B5: D2M2-4 (Y101N) (protein)
chain: B1 chain with Q39E, A101I, K128L

- AP-DAA [4]: 5.6 fold
B6: D2M2-4 (E136Q) (D2) (protein)
chain: B1 chain with N68Y, A101I, K128L

- AP-DAA [4]: 6.7 fold
- CP-DAA [5]: 2 fold
B7: D2M2-4 (I134A) (protein)
chain: B1 chain with Q39E, N68Y, K128L

- AP-DAA IC50 [2]: 1.1 nM and 2.3 nM
- CP-DAA IC50 [3]: 16.5 nM and 14.5 nM and 2.6 nM
B8: decay-accelerating factor (DAF; CD55) (protein)
chain: CGLPPDVPNAQPALEGRTSFPEDTVITYKCEESFVKIPGEKDSVICLKGSQWSDIEEFCNRSCEVPTRLNSASLKQPYITQNYFPVGTVVEYECRPGYRREPSLSPKLTCLQNLKWSTAVEFCKKKSCPNPGEIRNGQIDVPGGILFGATISFSCNTGYKLFGSTSSFCLISGSSVQWSDPLPECREIYCPAPPQIDNGIIQGERDHYGYRQSVTYACNKGFTMIGEHSIYCTVNNDEGEWSGPPPECRGKS

- AP-DAA IC50 [2]: > 10 nM
- CP-DAA IC50 [3]: 10.9 nM
B9: D2D3 (protein)
chain: CEVPTRLNSASLKQPYITQNYFPVGTVVEYECRPGYRREPSLSPKLTCLQNLKWSTAVEFCKKKSCPNPGEIRNGQIDVPGGILFGATISFSCNTGYKLFGSTSSFCLISGSSVQWSDPLPECREIY

- C3b CFA: time (min.) for 50% cleavage of C3b α′-chain [6]: 3.5 min and 2.1 min and 4.5 min
- C4b CFA: time (min.) for 50% cleavage of C4b α-chain [7]: 16.5 min and 12 min and 9.3 min
B10: membrane cofactor protein (MCP; CD46) (protein)
chain: CEEPPTFEAMELIGKPKPYYEIGERVDYKCKKGYFYIPPLATHTICDRNHTWLPVSDDACYRETCPYIRDPLNGQAVPANGTYEFGYQMHFICNEGYYLIGEEILYCELKGSVAIWSGKPPICEKVLCTPPPKIKNGKHTFSEVEVFEYLDAVTYSCDPAPGPDPFSLIGESTIYCGDNSVWSRAAPECKVVKCRFPVVENGKQISGFGKKFYYKATVMFECDKGFYLDGSDTIVCDSNSTWDPPVPKCLKVL

- AP-DAA IC50 [2]: > 10 nM
- C3b CFA: time (min.) for 50% cleavage of C3b α′-chain [6]: 17.5 min
- C4b CFA: time (min.) for 50% cleavage of C4b α-chain [7]: 5.5 min
- CP-DAA IC50 [3]: 39.3 nM
B11: D2D3M3M4 (Multi-4) (protein)
chain: CEVPTRLNSASLKQPYITQNYFPVGTVVEYECRPGYRREPSLSPKLTCLQNLKWSTAVEFCKKKSCPNPGEIRNGQIDVPGGILFGATISFSCNTGYKLIGKTSSFCLISGSSVQWSDKLPICEKVLCTPPPKIKNGKHTFSEVEVFEYLDAVTYSCDPAPGPDPFSLIGESTIYCGDNSVWSRAAPECKVVKCRFPVVENGKQISGFGKKFYYKATVMFECDKGFYLDGSDTIVCDSNSTWDPPVPKCLKVL

- AP-DAA IC50 [2]: 3.4 nM
- C3b CFA: time (min.) for 50% cleavage of C3b α′-chain [6]: 30.1 min
- C4b CFA: time (min.) for 50% cleavage of C4b α-chain [7]: 93 min
- CP-DAA IC50 [3]: 21 nM
B12: D2D3M3M4 (P216K) (protein)
chain: B11 chain with I100F, K102S, I122E, E124R, K125E, V126I, L127Y

- AP-DAA IC50 [2]: 3.7 nM
- C3b CFA: time (min.) for 50% cleavage of C3b α′-chain [6]: 103 min
- C4b CFA: time (min.) for 50% cleavage of C4b α-chain [7]: 513 min
- CP-DAA IC50 [3]: 17.7 nM
B13: D2D3M3M4 (T200Y) (protein)
chain: B11 chain with I100F, K102S, T103Y, K119P, I122E, E124R, K125E, V126I, L127Y

- AP-DAA IC50 [2]: 4.4 nM
- C3b CFA: time (min.) for 50% cleavage of C3b α′-chain [6]: 49.8 min
- C4b CFA: time (min.) for 50% cleavage of C4b α-chain [7]: 66.7 min
- CP-DAA IC50 [3]: 30.7 nM
B14: D2D3M3M4 (F197I) (protein)
chain: B11 chain with K102S, K119P, I122E, E124R, K125E, V126I, L127Y

- AP-DAA IC50 [2]: 1.9 nM
- C3b CFA: time (min.) for 50% cleavage of C3b α′-chain [6]: 27.3 min
- C4b CFA: time (min.) for 50% cleavage of C4b α-chain [7]: 443 min
- CP-DAA IC50 [3]: 22.6 nM
B15: D2D3M3M4 (Multi-1) (protein)
chain: B11 chain with I100F, K102S, K119P

- AP-DAA IC50 [2]: > 10 nM
- C4b CFA: time (min.) for 50% cleavage of C4b α-chain [7]: > 540 min
- CP-DAA IC50 [3]: > 100 nM
B16: D2D3M3M4 (K195Y) (protein)
chain: B11 chain with K98Y, I100F, K102S, K119P, I122E, E124R, K125E, V126I, L127Y

- AP-DAA IC50 [2]: 2.4 nM and 2.1 nM
- C3b CFA: time (min.) for 50% cleavage of C3b α′-chain [6]: 80.7 min and 82.6 min
- C4b CFA: time (min.) for 50% cleavage of C4b α-chain [7]: 429 min and 465 min
- CP-DAA IC50 [3]: 5.1 nM and 15.9 nM
B17: D2D3M3M4 (protein)
chain: B11 chain with I100F, K102S, K119P, I122E, E124R, K125E, V126I, L127Y

- AP-DAA IC50 [2]: 6.6 nM
- C3b CFA: time (min.) for 50% cleavage of C3b α′-chain [6]: 18.9 min
- C4b CFA: time (min.) for 50% cleavage of C4b α-chain [7]: 181 min
- CP-DAA IC50 [3]: 21.7 nM
B18: D2D3M3M4 (S199K) (protein)
chain: B11 chain with I100F, K119P, I122E, E124R, K125E, V126I, L127Y

- AP-DAA IC50 [2]: 2.4 nM
- C3b CFA: time (min.) for 50% cleavage of C3b α′-chain [6]: 3.3 min
- C4b CFA: time (min.) for 50% cleavage of C4b α-chain [7]: 3.1 min
- CP-DAA IC50 [3]: 12.7 nM
B19: D2D3M3M4 (Multi-5) or DCP (protein)
chain: B11 chain with K102S

- AP-DAA IC50 [2]: 2.3 nM
- C3b CFA: time (min.) for 50% cleavage of C3b α′-chain [6]: 74.3 min
- C4b CFA: time (min.) for 50% cleavage of C4b α-chain [7]: 268 min
- CP-DAA IC50 [3]: 15.3 nM
B20: D2D3M3M4 (T192E) (protein)
chain: B11 chain with T95E, I100F, K102S, K119P, I122E, E124R, K125E, V126I, L127Y

- AP-DAA IC50 [2]: > 10 nM
- C3b CFA: time (min.) for 50% cleavage of C3b α′-chain [6]: 104 min
- C4b CFA: time (min.) for 50% cleavage of C4b α-chain [7]: 433 min
- CP-DAA IC50 [3]: 9.2 nM
B21: D2D3M3M4 (L205K) (protein)
chain: B11 chain with I100F, K102S, L108K, K119P, I122E, E124R, K125E, V126I, L127Y

- AP-DAA IC50 [2]: 5.6 nM
- CP-DAA IC50 [3]: 5.7 nM
B22: D2D3D4M4 (protein)
chain: CEVPTRLNSASLKQPYITQNYFPVGTVVEYECRPGYRREPSLSPKLTCLQNLKWSTAVEFCKKKSCPNPGEIRNGQIDVPGGILFGATISFSCNTGYKLFGSTSSFCLISGSSVQWSDPLPECREIYCPAPPQIDNGIIQGERDHYGYRQSVTYACNKGFTMIGEHSIYCTVNNDEGEWSGPPPECRGKSCRFPVVENGKQISGFGKKFYYKATVMFECDKGFYLDGSDTIVCDSNSTWDPPVPKCLKVL
